From PMC10847431, “Evidence the Isc iron–sulfur cluster biogenesis machinery is the source of iron for [NiFe]-cofactor biosynthesis in Escherichia coli” (Scientific Reports, 2024)
Numbering of substitutions follows the chain as printed. Names and notes keep the numbering of the source. Values joined by “and” are separate entries in the source; they are usually repeats but may differ in a detail not shown here. Identical values can stand only once.

B1: HypD (natural protein, E. coli, UniProt P24192 1-373, looked up)
chain: MRFVDEYRAPEQVMQLIEHLRERASHLSYTAERPLRIMEVCGGHTHAIFKFGLDQLLPENVEFIHGPGCPVCVLPMGRIDTCVEIASHPEVIFCTFGDAMRVPGKQGSLLQAKARGADVRIVYSPMDALKLAQENPTRKVVFFGLGFETTMPTTAITLQQAKARDVQNFYFFCQHITLIPTLRSLLEQPDNGIDAFLAPGHVSMVIGTDAYNFIASDFHRPLVVAGFEPLDLLQGVVMLVQQKIAAHSKVENQYRRVVPDAGNLLAQQAIADVFCVNGDSEWRGLGVIESSGVHLTPDYQRFDAEAHFRPAPQQVCDDPRARCGEVLTGKCKPHQCPLFGNTCNPQTAFGALMVSSEGACAAWYQYRQQESEA
notes: HypD, hydrogenase maturation factor of Escherichia coli; printed mass 41,363.4 Da without and 41,715 Da with the [4Fe-4S] cluster; Carries a [4Fe-4S] cluster in all isolated complexes; No tag is named for HypD; also called native HypD; source: co-purified anoxically with it (StrepTactin Sepharose, when required Q-Sepharose)
B2: StrepII-tagged HypC (natural protein, E. coli, UniProt P0AAM3 2-90, looked up)
chain: CIGVPGQIRTIDGNQAKVDVCGIQRDVDLTLVGSCDENGQPRVGQWVLVHVGFAMSVINEAEARDTLDALQNMFDVEPDVGALLYGEEK
modifications: mixed population: unmodified species and species with +26 Da, +28 Da (CO or formyl), +16 Da (oxidation) and +136 Da (proposed Fe(CN)2CO) modifications, all associated with or dependent on the N-terminal cysteine residue (Cys2)
notes: HypC, hydrogenase maturation factor of Escherichia coli; lacks M1 (formyl-methionine lost after translation), so that Cys2 is the N-terminal residue; deconvoluted mass with the StrepII tag 10,641.5 Da; also called HypCStrep; StrepII-HypC; source: purified anoxically (StrepTactin Sepharose, when required Q-Sepharose); not shown: StrepII, C-terminal, kept
B3: StrepII-tagged HypC(C2A) (natural protein, E. coli, UniProt P0AAM3 2-90, looked up)
chain: B2 chain with C1A
notes: HypC of Escherichia coli with the exchange C2A (codon 2 TGC to GCG); single major species, deconvoluted mass 10,611 Da, without the modifications seen on native HypC; lacking M1 as native HypC; also called StrepII-HypCC2A; source: E. coli DHP-D (ΔhypD) carrying pT-hypDC(C2A)Strep, co-produced with HypD; purified anoxically (StrepTactin Sepharose); not shown: StrepII, C-terminal, kept

What was measured:
StrepII-tagged HypC = target: B2; experiment: native MS; anaerobically isolated StrepII-tagged HypC-HypD complexes, about 10 μM, 500 mM ammonium acetate pH 6.8, nano-ESI High-Mass Q-TOF II, collision energy 30 V (90 V for CID dissociation); complexes from DHP-D, ΔsufA, ΔiscU and ΔentC-ΔfeoB strains; conditions: both partners purified
HypD [1] = target: B1; experiment: pull-down; StrepII-tagged HypC co-produced with HypD in E. coli strains with defects in iron metabolism; anoxic StrepTactin Sepharose affinity purification; SDS-PAGE with Coomassie staining and western blots with antisera against HypD and HypC; conditions: partners not purified
HypD [2] = target: B1; experiment: native MS; anaerobically isolated StrepII-tagged HypC-HypD complexes, about 10 μM, 500 mM ammonium acetate pH 6.8, nano-ESI High-Mass Q-TOF II, collision energy 30 V (90 V for CID dissociation); complexes from DHP-D, ΔsufA, ΔiscU and ΔentC-ΔfeoB strains; conditions: both partners purified

Binder: B1
- stoichiometry N (StrepII-tagged HypC): 1 HypC:HypD
- stoichiometry of a minor complex species (StrepII-tagged HypC): 2 HypC:HypD (2:1) and 1 HypC:HypD (2:2)

Binder: B2
- binding result (HypD [1]): binds

Binder: B3
- binding result (HypD [2]): binds
